The assay deals with T1, human Inturned (human, UniProt Q9ULD6 1-942).
T1 sequence (looked up): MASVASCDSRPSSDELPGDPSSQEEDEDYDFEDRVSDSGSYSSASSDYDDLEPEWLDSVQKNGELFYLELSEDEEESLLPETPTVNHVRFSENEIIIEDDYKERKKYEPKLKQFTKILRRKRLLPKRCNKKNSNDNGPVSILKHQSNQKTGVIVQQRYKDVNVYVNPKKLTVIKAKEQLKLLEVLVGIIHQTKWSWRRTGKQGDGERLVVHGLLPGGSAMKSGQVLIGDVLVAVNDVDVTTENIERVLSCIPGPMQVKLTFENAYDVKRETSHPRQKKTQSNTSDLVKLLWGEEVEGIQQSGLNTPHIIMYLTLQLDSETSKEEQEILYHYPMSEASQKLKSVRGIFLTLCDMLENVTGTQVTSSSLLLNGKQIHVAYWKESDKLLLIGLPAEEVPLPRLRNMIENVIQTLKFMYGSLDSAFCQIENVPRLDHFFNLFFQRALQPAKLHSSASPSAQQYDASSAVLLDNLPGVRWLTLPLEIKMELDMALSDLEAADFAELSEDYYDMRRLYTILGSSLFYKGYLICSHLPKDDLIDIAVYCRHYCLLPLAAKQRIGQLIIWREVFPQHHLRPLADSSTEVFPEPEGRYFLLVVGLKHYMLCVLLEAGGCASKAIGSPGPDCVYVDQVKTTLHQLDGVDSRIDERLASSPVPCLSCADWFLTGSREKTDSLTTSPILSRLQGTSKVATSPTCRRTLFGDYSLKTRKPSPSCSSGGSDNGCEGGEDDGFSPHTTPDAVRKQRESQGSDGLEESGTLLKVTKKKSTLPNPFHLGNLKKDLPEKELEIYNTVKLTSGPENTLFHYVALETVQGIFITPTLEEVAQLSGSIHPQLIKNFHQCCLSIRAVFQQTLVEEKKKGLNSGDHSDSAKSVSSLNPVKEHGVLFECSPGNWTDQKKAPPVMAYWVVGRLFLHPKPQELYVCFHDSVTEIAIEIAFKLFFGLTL
Description: cryo-EM structure.

B1: human Wdpcp (natural protein, UniProt O95876 1-746, looked up)
chain: MRREFCWDAYSKAAGSRASSPLPRQDRDSFCHQMSFCLTELHLWSLKNTLHIADRDIGIYQYYDKKDPPATEHGNLEKKQKLAESRDYPWTLKNRRPEKLRDSLKELEELMQNSRCVLSKWKNKYVCQLLFGSGVLVSLSLSGPQLEKVVIDRSLVGKLISDTISDALLTDSFIILSFLAQNKLCFIQFTKKMESSDVNKRLEKLSALDYKIFYYEIPGPINKTTERHLAINCVHDRVVCWWPLVNDDAWPWAPISSEKDRANLLLLGYAQGRLEVLSSVRTEWDPLDVRFGTKQPYQVFTVEHSVSVDKEPMADSCIYECIRNKIQCVSVTRIPLKSKAISCCRNVTEDKLILGCEDSSLILYETHRRVTLLAQTELLPSLISCHPSGAILLVGSNQGELQIFDMALSPINIQLLAEDRLPRETLQFSKLFDASSSLVQMQWIAPQVVSQKGEGSDIYDLLFLRFERGPLGVLLFKLGVFTRGQLGLIDIIFQYIHCDEIYEAINILSSMNWDTLGHQCFISMSAIVNHLLRQKLTPEREAQLETSLGTFYAPTRPLLDSTILEYRDQISKYARRFFHHLLRYQRFEKAFLLAVDVGARDLFMDIHYLALDKGELALAEVARKRASDIDAESITSGVELLGPLDRGDMLNEAFIGLSLAPQGEDSFPDNLPPSCPTHRHILQQRILNGSSNRQIIDRRNELEKDICSGFLMTNTCNAEDGELREDGREQEIRDGGSLKMIHFGLV
As for B1, the binding result was “binds”.

B2: human Fuzzy (natural protein, UniProt Q9BT04 1-418, looked up)
chain: MGEEGTGGTVHLLCLAASSGVPLFCRSSRGGAPARQQLPFSVIGSLNGVHMFGQNLEVQLSSARTENTTVVWKSFHDSITLIVLSSEVGISELRLERLLQMVFGAMVLLVGLEELTNIRNVERLKKDLRASYCLIDSFLGDSELIGDLTQCVDCVIPPEGSLLQEALSGFAEAAGTTFVSLVVSGRVVAATEGWWRLGTPEAVLLPWLVGSLPPQTARDYPVYLPHGSPTVPHRLLTLTLLPSLELCLLCGPSPPLSQLYPQLLERWWQPLLDPLRACLPLGPRALPSGFPLHTDILGLLLLHLELKRCLFTVEPLGDKEPSPEQRRRLLRNFYTLVTSTHFPPEPGPPEKTEDEVYQAQLPRACYLVLGTEEPGTGVRLVALQLGLRRLLLLLSPQSPTHGLRSLATHTLHALTPLL
On to B2, for which the binding result is “binds”.

These data come from paper PMC9012472 (Science Advances, 2022).
